Results reported in patent US8026218 (UNIVERSITY OF ARIZONA, dated 2011).
Like-named read-outs stand apart in the source and are kept apart here. Square brackets hold non-standard residues; d marks the D form. Primed or numbered codes have the meaning given here. Ends that are not written are not given here. * marks the point of attachment. O‑Bzl(CF3)2 = C-terminal bis(trifluoromethyl)benzyl ester; NH(3,5-(CF3)2-benzyl) = FC(F)(F)c1cc(CN*)cc(C(F)(F)F)c1; OBzl(3,5-(CF3)2) = FC(F)(F)c1cc(CO*)cc(C(F)(F)F)c1; Glc″ = glucosyl on the serine side-chain oxygen; Phe(4-F) = N[C@@H](Cc1ccc(F)cc1)C(=O)O; Dmt = Cc1cc(O)cc(C)c1C[C@H](N)C(=O)O; Nle = CCCC[C@H](N)C(=O)O; NHBn = c1ccc(CN*)cc1

Experiments:
[1] = molecular target: T1, µ opioid receptor of the guinea pig isolated ileum (guinea pig, UniProt P97266 1-98); experiment: cell-based or functional assay
T1 sequence (P97266 whole entry): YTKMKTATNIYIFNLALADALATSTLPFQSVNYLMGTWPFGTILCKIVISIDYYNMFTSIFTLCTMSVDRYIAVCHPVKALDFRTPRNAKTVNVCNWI

rat NK1 receptor [2] = molecular target: T2, rat NK1 receptor (rat, UniProt P14600 1-407); experiment: competition vs [3H]Substance P, rNK1 CHO cell membranes
T2 construct: whole, on cells; membrane preparations of the transfected cells were used; also called rNK1; rNK-1
T2 sequence (P14600 whole entry): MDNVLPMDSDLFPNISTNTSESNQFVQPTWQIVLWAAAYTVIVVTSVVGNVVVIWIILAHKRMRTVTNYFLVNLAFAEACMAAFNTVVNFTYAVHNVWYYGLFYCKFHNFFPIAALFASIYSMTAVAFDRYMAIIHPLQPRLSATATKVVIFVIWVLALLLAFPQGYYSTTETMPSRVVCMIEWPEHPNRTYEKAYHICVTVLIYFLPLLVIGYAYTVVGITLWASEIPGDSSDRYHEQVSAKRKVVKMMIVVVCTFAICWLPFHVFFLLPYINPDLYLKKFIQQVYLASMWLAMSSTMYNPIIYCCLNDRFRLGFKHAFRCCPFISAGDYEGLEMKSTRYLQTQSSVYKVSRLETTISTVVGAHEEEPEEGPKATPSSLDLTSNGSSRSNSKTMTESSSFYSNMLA

human δ opioid receptor [3] = molecular target: T3, human δ opioid receptor (human, UniProt P41143 1-372); experiment: cell-based or functional assay
T3 sequence (P41143 whole entry, stated change not applied): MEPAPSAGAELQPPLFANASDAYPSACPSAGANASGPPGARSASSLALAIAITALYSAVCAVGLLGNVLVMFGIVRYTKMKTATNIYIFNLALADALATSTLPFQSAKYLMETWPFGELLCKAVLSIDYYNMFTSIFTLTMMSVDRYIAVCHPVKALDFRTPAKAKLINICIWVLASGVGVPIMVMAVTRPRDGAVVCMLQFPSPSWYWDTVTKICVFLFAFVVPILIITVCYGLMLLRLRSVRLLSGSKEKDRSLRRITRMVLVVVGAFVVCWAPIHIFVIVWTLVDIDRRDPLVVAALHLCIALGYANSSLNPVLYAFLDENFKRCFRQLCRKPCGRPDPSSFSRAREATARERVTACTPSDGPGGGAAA

rat NK1 receptor [4] = molecular target: T2, rat NK1 receptor; experiment: competition vs [3H]Substance P, rNK1 CHO cell membranes; remark: listed apart in the source
human δ opioid receptor [5] = molecular target: T3, human δ opioid receptor; experiment: competition vs [3H]DPDPE, hDOR cell membranes
[6] = molecular target: T4, µ opioid receptor of the guinea pig isolated ileum (guinea pig, UniProt P97266 1-98); experiment: cell-based or functional assay; remark: listed apart in the source
T4 sequence (P97266 whole entry): as the sequence (P97266 whole entry) above

[7] = molecular target: T4, µ opioid receptor of the guinea pig …; experiment: cell-based or functional assay; remark: listed apart in the source
[8] = molecular target: T4, µ opioid receptor of the guinea pig …; experiment: cell-based or functional assay; remark: listed apart in the source
human NK1 receptor [9] = molecular target: T5, human NK1 receptor (human, UniProt P25103 1-407); experiment: competition vs [3H]Substance P, hNK1 CHO cell membranes
T5 construct: whole, on cells; membrane preparations of the transfected cells were used; also called hNK1; human neurokinin-1 receptor
T5 sequence (P25103 whole entry): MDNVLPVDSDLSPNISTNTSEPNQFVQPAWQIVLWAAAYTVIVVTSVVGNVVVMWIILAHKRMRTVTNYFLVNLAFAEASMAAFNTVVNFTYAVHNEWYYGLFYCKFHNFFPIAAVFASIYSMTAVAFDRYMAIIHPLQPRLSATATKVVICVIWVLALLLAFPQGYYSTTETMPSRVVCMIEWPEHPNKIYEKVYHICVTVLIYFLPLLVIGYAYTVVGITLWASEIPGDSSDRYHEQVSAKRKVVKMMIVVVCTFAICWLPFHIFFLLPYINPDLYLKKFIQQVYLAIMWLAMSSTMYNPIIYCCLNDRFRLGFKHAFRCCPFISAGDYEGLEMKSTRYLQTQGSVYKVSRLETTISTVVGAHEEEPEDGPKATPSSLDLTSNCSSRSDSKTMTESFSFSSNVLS

human δ opioid receptor [10] = molecular target: T3, human δ opioid receptor; experiment: competition vs [3H]DPDPE, hDOR cell membranes; remark: listed apart in the source
guinea pig NK1 receptor [11] = molecular target: T6, guinea pig NK1 receptor (guinea pig, UniProt P30547 1-407); experiment: cell-based or functional assay
T6 sequence (P30547 whole entry): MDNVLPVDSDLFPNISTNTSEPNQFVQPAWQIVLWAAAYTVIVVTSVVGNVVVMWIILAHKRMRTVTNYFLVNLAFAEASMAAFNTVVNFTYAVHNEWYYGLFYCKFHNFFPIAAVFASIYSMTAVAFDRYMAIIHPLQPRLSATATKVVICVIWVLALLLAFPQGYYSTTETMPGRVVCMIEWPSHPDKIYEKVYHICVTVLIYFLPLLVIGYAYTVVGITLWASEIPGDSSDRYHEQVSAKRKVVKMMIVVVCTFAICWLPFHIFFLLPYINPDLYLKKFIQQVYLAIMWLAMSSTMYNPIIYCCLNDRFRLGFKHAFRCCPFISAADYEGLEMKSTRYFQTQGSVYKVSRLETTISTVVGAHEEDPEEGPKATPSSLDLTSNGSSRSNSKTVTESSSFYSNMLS

human δ opioid receptor [12] = molecular target: T3, human δ opioid receptor; experiment: cell-based or functional assay; remark: listed apart in the source
rat µ opioid receptor [13] = molecular target: T7, rat µ opioid receptor (rat, UniProt P33535 1-398); experiment: cell-based or functional assay
T7 sequence (P33535 whole entry): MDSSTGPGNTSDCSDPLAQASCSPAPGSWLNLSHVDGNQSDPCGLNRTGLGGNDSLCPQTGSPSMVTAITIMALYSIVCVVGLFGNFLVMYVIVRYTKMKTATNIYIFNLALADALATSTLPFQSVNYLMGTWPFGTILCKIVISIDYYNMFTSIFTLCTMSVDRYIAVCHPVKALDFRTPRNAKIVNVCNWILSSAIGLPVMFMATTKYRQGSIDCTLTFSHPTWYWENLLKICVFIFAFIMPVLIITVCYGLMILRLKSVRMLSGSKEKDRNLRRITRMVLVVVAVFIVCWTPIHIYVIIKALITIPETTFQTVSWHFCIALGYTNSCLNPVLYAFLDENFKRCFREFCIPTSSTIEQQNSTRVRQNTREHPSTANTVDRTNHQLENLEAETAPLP

guinea pig NK1 receptor [14] = molecular target: T6, guinea pig NK1 receptor; experiment: cell-based or functional assay; remark: listed apart in the source
[15] = molecular target: T4, µ opioid receptor of the guinea pig …; experiment: cell-based or functional assay; remark: listed apart in the source
rat µ opioid receptor [16] = molecular target: T7, rat µ opioid receptor; experiment: competition vs [3H]DAMGO, rMOR cell membranes
human NK1 receptor [17] = molecular target: T5, human NK1 receptor; experiment: competition vs [3H]Substance P, hNK1 CHO cell membranes; remark: listed apart in the source
[18] = molecular target: T1, µ opioid receptor of the guinea pig …; experiment: cell-based or functional assay; remark: listed apart in the source
human δ opioid receptor [19] = molecular target: T8, human δ opioid receptor (human, UniProt P41143 1-372); experiment: cell-based or functional assay; remark: listed apart in the source
T8 sequence (P41143 whole entry, stated change not applied): as the sequence (P41143 whole entry, stated change not applied) above

rat µ opioid receptor [20] = molecular target: rat µ opioid receptor (rat, UniProt P33535 1-398); experiment: cell-based or functional assay; remark: listed apart in the source
Target sequence in this assay (P33535 whole entry): as the sequence (P33535 whole entry) above

rat NK1 receptor [21] = molecular target: T9, rat NK1 receptor (rat, UniProt P14600 1-407); experiment: competition vs [3H]substance P, membranes of rNK1-transfected CHO cells
T9 construct: whole, on cells; Assayed as membrane preparations of transfected CHO cells; also called rNK1; rNK-1
T9 sequence (P14600 whole entry): as the sequence (P14600 whole entry) above

human δ opioid receptor [22] = molecular target: T8, human δ opioid receptor; experiment: competition vs [3H]DPDPE, membranes of hDOR-transfected HN9.10 cells
guinea pig NK1 receptor [23] = molecular target: T6, guinea pig NK1 receptor; experiment: cell-based or functional assay; remark: listed apart in the source

Binder: Y[dA]GFLW-{O‑Bzl(CF3)2} [Tyr-DAla-Gly-Phe-Leu-Trp-O-Bzl(CF3)2 (NP37)]
- GPI/LMMP µ-agonist IC50 [1]: 45.4 nM

Binder: Y[dA]GFMPLW-{NH(3,5-(CF3)2-benzyl)} (also called TY027) [TyrDAlaGlyPheMetProLeuTrpNHBn(CF3)2]
- Ki (rat NK1 receptor [2]): 7.3 nM
- LogIC50 (rat NK1 receptor [2]): -7.6
- [35S]GTPγS binding EC50 (human δ opioid receptor [3]): 8.6 nM
- [35S]GTPγS binding Emax (human δ opioid receptor [3]): 58%
- [35S]GTPγS binding LogEC50 (human δ opioid receptor [3]): -8.1
- Ki (rat NK1 receptor [4]): 7.27 nM
- LogIC50 (human δ opioid receptor [5]): -8.8
- GPI (µ) IC50 [6]: 490 nM
- GPI/LMMP IC50 [7]: 488 nM
- GPI (µ) IC50 [8]: 490 nM

Binder: [Dmt][dA]GFMPLW-{OBzl(3,5-(CF3)2)} (also called TY033) [DmtDAlaGlyPheMetProLeuTrpOBn(CF3)2]
- Ki (rat NK1 receptor [4]): 0.96 nM
- Ki (human NK1 receptor [9]): 1.2 nM
- Ki (human δ opioid receptor [10]): 0.22 nM
- GPI/LMMP Substance P antagonist Ke (guinea pig NK1 receptor [11]): 24.5 nM
- GPI/LMMP IC50 [7]: 100 nM

Binder: Y[dA]GF[Nle]S(Glc″)LW-{NH(3,5-(CF3)2-benzyl)} (also called TY044) [TyrDAlaGlyPheNleSer(OGlu)LeuTrpNHBn(CF3)2]
- GTP binding Emax (human δ opioid receptor [12]): 162%
- GTP binding EC50 (rat µ opioid receptor [13]): 380 nM
- GTP binding Emax (rat µ opioid receptor [13]): 85%
- GPI/LMMP SP antagonist Ke (guinea pig NK1 receptor [14]): 18.4 nM
- GPI/LMMP IC50 [15]: 249 nM
- Ki (rat µ opioid receptor [16]): 3370 nM
- Ki (human NK1 receptor [17]): 1.3 nM

Binder: Y[dA]GFMW-{O‑Bzl(CF3)2} [Tyr-DAla-Gly-Phe-Met-Trp-O-Bzl(CF3)2 (NP38)]
- GPI/LMMP µ-agonist IC50 [1]: 393 nM

Binder: Y[dA]G[Phe(4-F)]-{OBzl(3,5-(CF3)2)} [Tyr-D-Ala-Gly-pFPhe-O-3′,5′(CF3)2-Bzl (NP62)]
- GPI µ-agonist IC50 [18]: 208 nM

Binder: H-Y[dA]GFMPLW-NHBn (also: TFA salt, TFA salt; also called TY025) [H-Tyr-D-Ala-Gly-Phe-Met-Pro-Leu-Trp-NH-Bzl]
- [35S]GTPγS binding EC50 (human δ opioid receptor [19]): 2.6 nM
- [35S]GTPγS binding LogEC50 (human δ opioid receptor [19]): -8.6
- [35S]GTPγS binding Emax (rat µ opioid receptor [20]): 47%
- Ki (rat NK1 receptor [21]): 700 nM
- LogIC50 (rat NK1 receptor [21]): -5.6
- Ki (human δ opioid receptor [22]): 0.44 nM
- LogIC50 (human δ opioid receptor [22]): -9.1

Binder: Y[dA]GW-{OBzl(3,5-(CF3)2)} [Tyr-D-Ala-Gly-Trp-O-3′,5′(CF3)2-Bzl (NP44)]
- GPI µ-agonist IC50 [18]: 844 nM

Binder: Y[dA]GFMPLW-NHBn (also called TY025) [TyrDAlaGlyPheMetProLeuTrpNHBn]
- GPI Substance P antagonist Ke (guinea pig NK1 receptor [23]): 9.9 nM
- GPI (µ) IC50 [6]: 61 nM
- Ki (human δ opioid receptor [10]): 0.44 nM
- GPI/LMMP Substance P antagonist Ke (guinea pig NK1 receptor [11]): 9.9 nM
- GPI/LMMP IC50 [7]: 61.1 nM
